According to patent US12617870B2, “Methods of reversing ticagrelor activity” (SFJ Pharmaceuticals X, LTD., priority 2018, dated 2026):
“And” between values parts separate entries of the source, which are not always exact repeats. Identical values can stand only once. “Also recorded” adds a separate entry of the source.

Legend:
[1] = Phase 1 healthy volunteer study: safety, treatment-emergent adverse events; assay type: in vivo, human
Description: Safety Assessments: Safety and tolerability will be assessed by monitoring and recording of AEs, clinical laboratory test results (hematology, coagulation, serum chemistry, and urinalysis), vital sign measurements (systolic and diastolic blood pressures, oral body temperature, respiratory rate, and heart rate), 12-lead ECG results, cardiac telemetry monitoring, immunogenicity, and physical examination findings.
(§1) The primary safety outcome was the frequency and severity of treatment emergent adverse events (AEs) associated with PB2452 with or without oral ticagrelor pretreatment. Clinical laboratory test results, vital sign measurements, 12-lead ECG and continuous telemetry results, and physical examination findings were also assessed at multiple timepoints from screening to the end of the 28-day safety follow-up period. Immunogenicity was assessed before and at 7 and 28 days after PB2452 administration.

[2] = Phase 1 healthy volunteer study: immunogenicity (anti-drug antibodies); assay type: in vivo, human
Method: as §1
Other secondary outcomes included assessment of the PB2452 and ticagrelor pharmacokinetic profiles and evaluation of PB2452 immunogenicity at day 7 and 28 post-infusion.

[3] = test system: platelet aggregation (ticagrelor antiplatelet activity); assay type: in vivo, human
Method: Platelet function was assessed using light transmission aggregometry (LTA), VerifyNow, and vasodilator stimulated phosphoprotein (VASP) assays before and after 48 hours of ticagrelor administration […] Cohorts 7 to 10 received an 18-gram fixed dose of PB2452 via various infusion regimens or placebo. Infusions of PB2452 in these cohorts were initiated 2 hours after the last ticagrelor pretreatment dose to coincide with the peak concentration of ticagrelor. (Gurbel (2009). Subjects in all cohorts were randomized in a 3:1 ratio to receive PB2452 or placebo. The primary efficacy outcome was the effectiveness of PB2452 in reversing the antiplatelet effect of ticagrelor by analyzing platelet aggregation using light transmission aggregometry at multiple time points before and after PB2452 or placebo administration in ticagrelor pretreated subjects. Secondary efficacy outcomes were the effectiveness of ticagrelor reversal assessed using VerifyNow and the vasodilator stimulated phosphoprotein phosphorylation immunoassay (VASP). The sample size of 64 was based on clinical and practical considerations and not on a formal statistical power calculation. The sample size was considered sufficient to adequately assess the safety, efficacy, and pharmacokinetic profiles of PB2452 and the pharmacokinetic and pharmacodynamic profiles of ticagrelor. Reversal of antiplatelet effect was evaluated by comparing the mean percent of baseline platelet aggregation between PB2452 and placebo using Wilcoxon rank-sum test. Multiplicity was adjusted using the Bonferroni method. Correlations between each pair of the platelet function tests were evaluated using Pearson's correlation and Spearman's rank correlation coefficient. Mean data from subjects receiving placebo were pooled across cohorts for all presentations. Categorical variables are summarized by their frequencies and percentages, and continuous variables are presented with the number of subjects with non-missing data, mean, standard deviation, median, minimum, and maximum. Descriptive statistics are presented for each cohort, and pooled placebo and PB2452 data. For pharmacodynamic data, platelet aggregation results were compared between each cohort and pooled placebo data (cohorts 4 to 6 and cohort 7 to 10 were pooled separately). All analyses were performed with SAS software, version 9.4 (SAS Institute).

[4] = Phase 1 healthy volunteer study: pharmacokinetics of PB2452; assay type: in vivo, human
Method: Plasma Collection: Blood samples for PK analysis of PB2452 in plasma will be collected from all subjects at the following time points: before dosing (within 10 minutes prior to the initiation of study drug infusion and up to 28 days after the initiation of study drug infusion. Specific collection times for each cohort are listed in the table below: […]

[5] = test system: platelet reactivity (VerifyNow P2Y12); test: Phase 1 healthy volunteer study: VerifyNow P2Y12 platelet reactivity (PRU); assay type: in vivo, human; conditions: sustained for 24 hours
Description: Secondary Objectives: 1) To determine the pharmacokinetics of ascending doses of IV PB2452 in the presence and absence of ticagrelor; 2) To determine the pharmacokinetics of ticagrelor and its active metabolite TAM in the presence and absence of PB2452; 3) To assess the effectiveness of a single IV PB2452 dose in reversing ticagrelor antiplatelet activity by measuring P2Y12 reaction units (PRU) with VerifyNow™ P2Y12 assay and platelet reactivity index (PRI) with vasodilator stimulated phosphoprotein (VASP) phosphorylation assay by enzyme-linked immunosorbent assay (ELISA); 3) To evaluate the pharmacokinetics and pharmacodynamics of restarting a single dose of oral ticagrelor 24 hours after IV PB2452 administration if a sixth dose of ticagrelor is given; 4) To evaluate the immunogenicity potential of PB2452 […]
(§2) The primary efficacy outcome was the effectiveness of PB2452 in reversing the antiplatelet effect of ticagrelor by analyzing platelet aggregation using light transmission aggregometry at multiple time points before and after PB2452 or placebo administration in ticagrelor pretreated subjects. Secondary efficacy outcomes were the effectiveness of ticagrelor reversal assessed using VerifyNow and the vasodilator stimulated phosphoprotein phosphorylation immunoassay (VASP).

P2Y12 receptor signaling = test: Phase 1 healthy volunteer study: VASP phosphorylation ELISA (PRI); conditions: human, in vivo
Description: Secondary Objectives: 1) To determine the pharmacokinetics of ascending doses of IV PB2452 in the presence and absence of ticagrelor; 2) To determine the pharmacokinetics of ticagrelor and its active metabolite TAM in the presence and absence of PB2452; 3) To assess the effectiveness of a single IV PB2452 dose in reversing ticagrelor antiplatelet activity by measuring P2Y12 reaction units (PRU) with VerifyNow™ P2Y12 assay and platelet reactivity index (PRI) with vasodilator stimulated phosphoprotein (VASP) phosphorylation assay by enzyme-linked immunosorbent assay (ELISA); 3) To evaluate the pharmacokinetics and pharmacodynamics of restarting a single dose of oral ticagrelor 24 hours after IV PB2452 administration if a sixth dose of ticagrelor is given; 4) To evaluate the immunogenicity potential of PB2452
VASP by ELISA: 1) PRU at each assessment point; 2) Percent of baseline in PRU; 3) Maximal PRU; 4) Time to maximal PRU; 5) Time to 60%, 80%, 90% of baseline PRU
as §2

[6] = of the 48 subjects given PB2452

B1: PB2452: recombinant human IgG1λ monoclonal Fab antibody fragment that binds specifically to ticagrelor and TAM (antibody, listed as Homo sapiens)
heavy: QVQLQESGAEVKKPGSSVRVSCKASGGTFDSYSIHWVRQAPGQGLEWMGGIIPAFGTLSSAQDFQARVTISADKSTSTAYMELSGLRSEDTAVYYCARGSFDYYFWSASHPPNDALAIWGQGTLVTVSSASTKGPSVFPLAPSSKSTSGGTAALGCLVKDYFPEPVTVSWNSGALTSGVHTFPAVLQSSGLYSLSSVVTVPSSSLGTQTYICNVNHKPSNTKVDKRVEPKSCDK
light: QSVVTQPPSVSAAPGQKVTISCSGSNSDIGNNYVSWYQQLPGTAPKLLIYDNNKRPSGIPDRFSGSKSGTSATLAITGLQAGDEADYYCGTWLYDRAVGLFGGGTKVTVLGQPKAAPSVTLFPPSSEELQANKATLVCLISDFYPGAVTVAWKADSSPVKAGVETTTPSKQSNNKYAASSYLSLTPEQWKSHRSYSCQVTHEGSTVEKTVAPTECS
modifications: PB2452 VH with CH1; PB2452 VL with CL
overall safety and tolerability ([1]; 0.1 to 18 g IV, healthy subjects): safe and well-tolerated
Number of Subjects with at Least 1 TEAE ([1]; All PB2452 (N = 48)): 17 (35.4%) n (%) and 17 (35.4) n (%)
Total Number of TEAEs ([1]; All PB2452 (N = 48)): 27
Abdominal pain ([1]; TEAE, All PB2452 (N = 48)): 1 (2.1) n (%)
Acute respiratory failure ([1]; TEAE, All PB2452 (N = 48)): 1 (2.1) n (%)
Alcohol poisoning ([1]; TEAE, All PB2452 (N = 48)): 1 (2.1) n (%)
Blood urine present ([1]; TEAE, All PB2452 (N = 48)): 1 (2.1) n (%)
Conjunctivitis ([1]; TEAE, All PB2452 (N = 48)): 1 (2.1) n (%)
Contusion ([1]; TEAE, All PB2452 (N = 48)): 0 n (%)
Dizziness ([1]; TEAE, All PB2452 (N = 48)): 1 (2.1) n (%)
Eyelid irritation ([1]; TEAE, All PB2452 (N = 48)): 0 n (%)
Gastroenteritis ([1]; TEAE, All PB2452 (N = 48)): 1 (2.1) n (%)
Hematuria ([1]; TEAE, All PB2452 (N = 48)): 1 (2.1) n (%)
Infusion site bruising ([1]; TEAE, All PB2452 (N = 48)): 4 (8.3) n (%)
Infusion site extravasation ([1]; TEAE, All PB2452 (N = 48)): 2 (4.2) n (%)
Infusion site reaction ([1]; TEAE, All PB2452 (N = 48)): 1 (2.1) n (%)
Medical device site reaction ([1]; TEAE, All PB2452 (N = 48)): 3 (6.3) n (%)
Musculoskeletal chest pain ([1]; TEAE, All PB2452 (N = 48)): 0 n (%)
Nasopharyngitis ([1]; TEAE, All PB2452 (N = 48)): 1 (2.1) n (%)
Oropharyngeal pain ([1]; TEAE, All PB2452 (N = 48)): 1 (2.1) n (%)
Pharyngitis streptococcal ([1]; TEAE, All PB2452 (N = 48)): 1 (2.1) n (%)
Pneumonia aspiration ([1]; TEAE, All PB2452 (N = 48)): 1 (2.1) n (%)
Skin abrasion ([1]; TEAE, All PB2452 (N = 48)): 1 (2.1) n (%)
Upper limb fracture ([1]; TEAE, All PB2452 (N = 48)): 1 (2.1) n (%)
Vessel puncture site bruise ([1]; TEAE, All PB2452 (N = 48)): 2 (4.2) n (%)
deaths or adverse events leading to study drug discontinuation ([1]; human, in vivo): no deaths or adverse events leading to study drug discontinuation
drug-related adverse events ([1]; human, in vivo): no drug-related adverse events; also recorded: None of the adverse events was considered related to study drug
study-drug related serious adverse events, dose-limiting toxicities, infusion-related reactions ([1]; human, in vivo): no study-drug related serious adverse events, dose-limiting toxicities, or infusion-related reactions; also recorded: no serious adverse events or infusion reactions associated with PB2452
effect of antibody titers on PB2452 safety or efficacy ([2]; human, in vivo): no observed effect
subjects anti-drug antibody positive post-dosing [2, 6]: 6 (12.5%) subjects (%)
subjects with detectable anti-drug antibodies [2, 6]: 21 (43.8%) subjects (%)
subjects with pre-existing (pre-dose) antibodies [2, 6]: 15 (31.3%) subjects (%)
time to complete restoration of platelet function ([3]; 3 g or 9 g PB2452 IV over 30 minutes): ≤ 30 min
reversal sustained for ([3]; 10-minute IV bolus followed by 16-hour infusion, multiple assays): over 20 hours
onset of reversal ([3]; 10-minute IV bolus followed by 16-hour infusion, multiple assays, vs placebo P<0.0001): ≤ 5 min
time to significantly increased mean platelet aggregation ([3]; Cohort 7, 18 g: 3.0 g bolus followed by 8 hour infusion): ≤ 2 h
time to reversal after initiation of the infusion ([3]; Cohorts 8 to 10, 18 g: 6.0 g bolus followed by infusions for 12 or 16 hours): ≤ 5 min
mean platelet aggregation restored, relative to pre-ticagrelor baseline ([3]; LTA, all post-treatment time points up to 20 hours): ≥ 80 % of baseline
rebound in platelet activity after drug cessation ([3]; human, in vivo): no evidence of rebound
PB2452 exposure extended for ([4]; 18 gram dose level with 8- to 16-hour infusions): 12 to 24 h
estimated distribution half-life ([4]; IV, healthy subjects): 0.86 h
estimated terminal half-life ([4]; IV, healthy subjects): 6.9 h
volume of distribution ([4]; IV, healthy subjects): approximately 2.9 L
dose dependence of mean exposure ([4]; dose range of 0.1 to 9.0 grams): dose-linear increases in mean exposure
mean VerifyNow platelet reactivity [5]: ≥ 180 PRU
VASP PRI restored, relative to baseline (P2Y12 receptor signaling): ~100 % of baseline
duration of restored VASP PRI (P2Y12 receptor signaling): 20 to 24 h
time to restoration of VASP PRI (P2Y12 receptor signaling): ≤ 5 min
